The values below come from patent EP2032607B1.

In assay [1] the target is activated FIX-albumin fusion protein with non-cleavable linker 980/797 (human) (UniProt P00740). In words: cell-based or functional assay.
In assay [2] the target is activated FIX-albumin fusion protein with cleavable linker 1088/797 (human) (UniProt P00740). In words: cell-based or functional assay.

For the substance “antithrombin III (from UniProt P01008 33-464)”, in assay [1], the clotting time (naPTT) after 120 min incubation with AT is 411 s and the clotting time (naPTT), control with AT but without incubation worked out at 196 s. In addition, in assay [2], the clotting time (naPTT) after 120 min incubation with AT worked out at 540 s; the clotting time (naPTT), control with AT but without incubation was 210 s; the factor of increase in clotting time (naPTT) after 120 min incubation with AT was 2.57 x.
